Source: paper PMC5964521 (Infection and Immunity, 2018)

B1: biotinylated antibody D8, recombinant human IgG1 (antibody, V domains shown)
VH: QITLRESGAEVTKPGSSVKVSCKASGGTFGSYGIRWVRQAPGQGLEWMGGIIPMFGTANYAQRFQGRVTITADKSTSTAYMELSSLKSEDTAVYYCARENSIVGANWFDPWGQGTLVTVSS
VL: EIVMTQSPSSLSASVGDRVTFTCRASQSISTYLNWYQQKPGKAPTLLIYAASTLRSGVPSRFSGSGSGTDFTLTISSLQPVDFATYFCQQSYSSPYTFGQGTTLEIK
B2: biotinylated antibody A12, recombinant human IgG1 (antibody, V domains shown)
VH: QVTLKESGGGLVKPGGSLRLSCAASGFTFTDYYMTWIRQAPGKGLEWVSCVGSSGTYTNYAQNVQGRFTISRDNAKNSLYLQMNSLRTEDTAVYYCARVTGSGNFYGSYHYYYMDVWGKGTMVTVSS
VL: EVVLTQSPATLSLSPGKKATLSCRASQSVSNYLAWYQQKPGQSPRLLIFDASKRAAGIPARFSGSGSGTDFTLTISSLEPEDFAVYYCQQRTNWLTFGGGTKVEIK
B3: biotinylated antibody A8, recombinant human IgG1 (antibody, V domains shown)
VH: QVQLVESGAEVKKPGASVKVSCKTSGYTFSSYGITWVRQAPGQGLEWMGWISAYNGDTNYADSVKGRVTMTTDTSTSTAYMELRSLRFDDTAVYYCARDTSFAPSGYGFDISGQGTTVTVSS
VL: DIQLTQSPSSLSASVGDRVTITCRASQGIRHELAWYQQKPGKAPQRLIYAASSLQSGVPSRFSGSGSGTDFTLTINSLQPEDSATYYCLQVNSYPRTFGQGTRVDIK
B4: biotinylated antibody H5, recombinant human IgG1 (antibody, V domains shown)
VH: QVQLVESGPGLVKPSETLSLTCTVSGASVSSGTYYWSWIRQPPGKGLEWIGYSYYTGSSDSNASLKSRVTLSIDTSRNLLSLKLTSVTAADTAVYYCARDRRKVRGVWAGYSGMDVWGPGTTVTVSS
VL: EIVMTQSPSSLSASVGDRVTITCQASQEITNYLNWYQQKPGKAPKLLIYDASHLETGVPSRFSGSGSGTDFSFTISSLQPEDIATYYCQQYDDFPWGGVTFGGGTKVEIK
B5: biotinylated antibody E12, recombinant human IgG1 (antibody, V domains shown)
VH: EVQLVESGGDLVQPGGSLRLSCEASGFTFSNYAMSWVRQAPGKGLEWVSGTSGSGGSTYYADSVKGRFTLSRDNSKNTLYLQMNSLRAEDTAVYYCAKDREVLRFFLLPYYFDSWGQGTLVTVSS
VL: DIVMTQSPGSLSLSPGERATLSCRASQSVSSDYVAWYQQKPGQAPRLLIFDASTRATGIPDRFSGSGSGTDFTLTIGRLEPEDFAVYYCQQYGNSPLTFGGGAKVEIK
B6: antibody A12 (antibody, V domains shown)
VH: B2 VH
VL: B2 VL
B7: antibody A8 (antibody, V domains shown)
VH: B3 VH
VL: B3 VL
B8: antibody E12 (antibody, V domains shown)
VH: B5 VH
VL: B5 VL
B9: antibody D8 (antibody, V domains shown)
VH: B1 VH
VL: B1 VL
B10: antibody H5 (antibody, V domains shown)
VH: B4 VH
VL: B4 VL

Target: pertussis toxin (PTx) holotoxin, native (Bordetella pertussis, strain  …, UniProt P04977;P04978;P04979;P0A3R5;P04981)
Experiment: ELISA
Conditions: both partners purified

Binder	EC50 [nM]
B1	0.76
B2	0.24
B3	0.65
B4	0.06
B5	0.56

Target: T1, PTx B oligomer (Bordetella pertussis, strain  …, UniProt P04978;P04979;P0A3R5;P04981)
Experiment: ELISA
Conditions: both partners purified

Binder	binding result
B6	no binding
B7	no binding
B8	no binding

Target: PTx S1-220 (soluble, truncated recombinant S1 subunit) (Bordetella pertussis, strain  …, UniProt P04977)
Experiment: ELISA
Conditions: both partners purified

Binder	EC50 [nM]
B7	0.02
B8	0.05

Target: T1, PTx B oligomer
Experiment: ELISA
Conditions: both partners purified
Remark: another data set of the same source

Binder	EC50 [nM]
B9	0.78
B10	0.11

Target: pertussis toxin (native PTx holotoxin) (Bordetella pertussis, strain  …, UniProt P04977;P04978;P04979;P0A3R5;P04981)
Experiment: ELISA
Conditions: both partners purified

Binder	EC50 [nM]
B9	0.14
B6	0.1
B7	0.15
B10	0.02
B8	0.13
